Results taken from US20140005098A1 (INSERM INSTITUT NATIONAL DE LA SANT ET DE LA RECHERCHE M …, published 2014).

Biological target: T1, IGF-II (UniProt P01344 25-91)
T1 construct: also called biotinylated IGF-II (tracer form)
Assay: solid-phase displacement of biotinylated IGF-II tracer (Example 5, to which the sentence points); reference: unfused mini-IGFBP-3
Method: A solid-phase assay was used to study the binding affinity of mini-IGFBP-3-Fc for IGF-II. In this assay, two binding proteins (mini-IGFBP-3 and mini-IGFBP-3-Fc) were immobilized to a support. They were incubated with the biotinylated IGF-II tracer, and then increasing concentrations of IGF-II were added.

T1 sequence (P01344 25-91 limits assumed): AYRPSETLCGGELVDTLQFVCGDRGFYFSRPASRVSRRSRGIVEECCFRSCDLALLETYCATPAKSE

B1: mini-IGFBP-3-Fc (mini-IGFBP-3-FcIgG1 fusion protein, immunoadhesin) (Fc fusion, human)
chain: GASSAGLGPVVRCEPCDARALAQCAPPPAVCAELVREPGCGCCLTCALSEGQPCGIYTERCGSGLRCQPSPDEARPLQALLDGRGLCVNASAVSGGGSGGSGGSGGSGGETEYGPCRREMEDTLNHLKFLNVLSPRGVHIPNCDKKGFYKKKQCRPSKGRKRGFCWCVDKYGQPLPGYTTKGKEDVHCYSMQSK
notes: range 1-94;range 180-264; also called mini-IGFBP-3 immunoadhesin; not shown: Fc fragment of human IgG1 from the pYM-Fc-IgG1 vector
- fold apparent affinity (IC50) against IGFBP-3 derivatives not fused to IgG1 Fc: 7 fold
